Consider two molecules from patent US20190241648A1 (STATEN BIOTECHNOLOGY B V, published 2019).

For one experiment, the target named is T1, ApoC3 peptide D66G (human, not fully specified; cyclic (thioether)).
T1 peptide: DKFSEFWGLDPEV
The experiment in a line: cyclic peptide substitution array. From the text:
(§1) S62 and D68 of mature huApoC3 were also highly conserved; substitution of S62 by A or V, and substitution of D68 by E or P, caused decrease of spot intensities by ˜60% or higher. […] Amino acid F64 was completely variable.
(§2) Pre: staining of one of the ApoC3 peptide microarrays was done with the secondary antibody goat anti-human IgG (Fe) DyLight680 (1:5000) and control antibody mouse monoclonal anti-HA (12CA5) DyLight800 (1:2000) to investigate background interactions of the secondary antibody with the antigen-derived peptides that could interfere with the main assays. Subsequent incubation of other ApoC3 peptide microarrays with antibody samples was followed by staining with secondary and control antibodies as well as read-out at scanning intensities of 7/7 (red/green). The additional HA peptides framing the peptide arrays were stained as internal quality control to confirm the assay quality and the peptide microarray integrity.

In a further experiment the target is T2, ApoC3 peptide V71K (human, thioether (positions not given here); also: cyclic (thioether), ring places not given here).
T2 peptide: DKFSEFWDLDPEK
The experiment in a line: cyclic peptide substitution array.
Description: as §1, §2

The next experiment has as its target T3, ApoC3 peptide … S48R (human, not fully specified (bridges); also: cyclic constrained).
T3 peptide: ARGWVTDGFRSLK
The experiment in a line: peptide microarray. Summed up:
(§3)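 Peptide microarrays of ApoC3-derived peptides incubated with antibody samples, then stained with goat anti-human IgG (Fc) DyLight680 (1:5000) and anti-HA DyLight800 (1:2000) control. Read-out by fluorescence scanning at intensities 7/7 (red/green); a secondary-only pre-stain checked background, HA frame peptides served as quality control.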

For another experiment, the target named is T4, ApoC3 peptide … D45Y (human, not fully specified (bridges); also: cyclic constrained).
T4 peptide: ARGWVTYGFSSLK
The experiment is described as follows: peptide microarray. Summed up:
as §3

Another experiment addresses T5, ApoC3 peptide … A39Y (human, not fully specified (bridges); also: cyclic constrained).
T5 peptide: YRGWVTDGFSSLK
The experiment in a line: peptide microarray. Summed up: as §3

Another experiment deals with T6, ApoC3 peptide … R40W (human, thioether (positions not given here); also: cyclic constrained).
T6 peptide: AWGWVTDGFSSLK
The experiment is described as follows: peptide microarray. Summed up: as §3

Another experiment addresses T7, ApoC3 peptide … L50W (human, not fully specified (bridges); also: cyclic constrained).
T7 peptide: ARGWVTDGFSSWK
The experiment in a line: peptide microarray. Summed up: as §3

The target of a further experiment is T8, ApoC3 peptide … L50Y (human, not fully specified (bridges); also: cyclic constrained).
T8 peptide: ARGWVTDGFSSYK
The experiment is described as follows: peptide microarray. Summed up: as §3

The next experiment concerns the target T9, ApoC3 peptide … G41Q (human, also: cyclic constrained).
T9 peptide: ARQWVTDGFSSLK
The experiment is described as follows: peptide microarray. Summed up:
as §3

Another experiment deals with T10, ApoC3 peptide … F47M (human, not fully specified (bridges); also: cyclic constrained).
T10 peptide: ARGWVTDGMSSLK
The experiment is described as follows: peptide microarray. Summed up:
as §3

In a further experiment the target is T11, ApoC3 peptide … F47P (human, not fully specified (bridges); also: cyclic constrained).
T11 peptide: ARGWVTDGPSSLK
The experiment is described as follows: peptide microarray. Summed up: as §3

For another experiment, the target named is T12, ApoC3 peptide … G46A (human, also: cyclic constrained).
T12 peptide: ARGWVTDAFSSLK
The experiment in a line: peptide microarray. Summed up:
as §3

Another experiment concerns the target T13, ApoC3 peptide … W42N (human, not fully specified (bridges); also: cyclic constrained).
T13 peptide: ARGNVTDGFSSLK
The experiment is described as follows: peptide microarray. Summed up:
as §3

The target of another experiment is T14, ApoC3 peptide … L50P (human, not fully specified (bridges); also: cyclic constrained).
T14 peptide: ARGWVTDGFSSPK
The experiment is described as follows: peptide microarray. Summed up: as §3

The target of a further experiment is T15, ApoC3 peptide … L50K (human, not fully specified; cyclic constrained).
T15 peptide: ARGWVTDGFSSKK
The experiment in a line: peptide microarray. Summed up: as §3

For another experiment, the target named is T16, ApoC3 peptide … T44N (human, not fully specified (bridges); also: cyclic constrained).
T16 peptide: ARGWVNDGFSSLK
The experiment in a line: peptide microarray. Summed up:
as §3

A further experiment concerns the target T17, ApoC3 peptide … A39R (human, not fully specified (bridges); also: cyclic constrained).
T17 peptide: RRGWVTDGFSSLK
The experiment is described as follows: peptide microarray. Summed up:
as §3

The target of the next experiment is T18, ApoC3 peptide … G46V (human, thioether (positions not given here); also: cyclic constrained).
T18 peptide: ARGWVTDVFSSLK
The experiment in a line: peptide microarray. Summed up: as §3

The next experiment addresses T19, ApoC3 peptide … W42D (human, not fully specified (bridges); also: cyclic constrained).
T19 peptide: ARGDVTDGFSSLK
The experiment is described as follows: peptide microarray. Summed up:
as §3

For the next experiment, the target named is T20, ApoC3 peptide … S49Y (human, not fully specified (bridges); also: cyclic constrained).
T20 peptide: ARGWVTDGFSYLK
The experiment is described as follows: peptide microarray. Summed up:
as §3

The target in the next experiment is T21, ApoC3 peptide … A39H (human, cyclic constrained).
T21 peptide: HRGWVTDGFSSLK
The experiment in a line: peptide microarray. Summed up: as §3

The next experiment has as its target T22, ApoC3 peptide … S49N (human, cyclic constrained).
T22 peptide: ARGWVTDGFSNLK
The experiment in a line: peptide microarray. Summed up:
as §3

The target in another experiment is T23, ApoC3 peptide … G41E (human, also: cyclic constrained).
T23 peptide: AREWVTDGFSSLK
The experiment in a line: peptide microarray. Summed up:
as §3

The next experiment has as its target T24, ApoC3 peptide … D45I (human, cyclic constrained).
T24 peptide: ARGWVTIGFSSLK
The experiment is described as follows: peptide microarray. Summed up:
as §3

Another experiment addresses T25, ApoC3 peptide … F47W (human, also: cyclic constrained).
T25 peptide: ARGWVTDGWSSLK
The experiment is described as follows: peptide microarray. Summed up: as §3

In the next experiment the target is ApoC3 peptide … S49F (human, cyclic constrained). The experiment is described as follows: peptide microarray. Summed up: as §3
The next experiment addresses T26, ApoC3 peptide … G41L (human, also: cyclic constrained).
T26 peptide: ARLWVTDGFSSLK
The experiment is described as follows: peptide microarray. Summed up:
as §3

The target in a further experiment is T27, ApoC3 peptide … G46I (human, not fully specified (bridges); also: cyclic constrained).
T27 peptide: ARGWVTDIFSSLK
The experiment is described as follows: peptide microarray. Summed up: as §3

The target of the next experiment is T28, ApoC3 peptide … T44Y (human, not fully specified (bridges); also: cyclic constrained).
T28 peptide: ARGWVYDGFSSLK
The experiment in a line: peptide microarray. Summed up: as §3

Ends that are not written are not given here.

B1: Llama antibody 5E5 (antibody, V domains shown)
VH: QLQLVESGGGLVQPGGSLRLSCAASGFTFGTYSMRWVRQVPRKALEWVSSISTDGGGTAYRDSVKGRFTISRDNAKNTLYLQMNNLKPEDTAIYYCVIAGYSDWGQGTQVTVSS
VL: ATMLTQSPGSLSVVPGESASISCKTSQGLVHSDGKTYFYWFLQKPGQSPQQLIYQVSNRASGVPDRFTGSGSGTDFTLKISGVKAEDAGVYYCAQGTYYPHTFGSGTRLEIK
notes: detected with goat anti-human IgG (Fc); also called mAb 5E5
With B1, the results for the “% of binding to wild-type peptide” value in the experiment with ApoC3 peptide D66G and in the experiment with ApoC3 peptide V71K were 0% and 91.1%, respectively.

B2: anti-ApoC3 antibody 14C7 (antibody, V domains shown)
VH: QVQVQESGPGLVKPSQTLSLTCTVSGGSITTNSYYWSWIRQPPGKGLEWMGAIDYSGDTYYSPSLKSRTSISRDTSKNQFTLQLTSVTPEDTAVYYCVSRIPTGEYWGQGTQVTVSS
VL: QTVVTQEPSLSVSPGGTVTLTCGLNSGSVTSSNYPDWYQQTPGQAPRLLIYNTNSRHSGVPSRFSGSISGNKAALTITGAQPEDEADYYCALYMGSDSVVFGGGTHLTVL
notes: it was detected with goat anti-human IgG (Fc); also called mAb 14C7; llama antibody 14C7
Take B2: the “% of binding to wild-type peptide” value in the experiment with ApoC3 peptide … S48R was 34.5%; with ApoC3 peptide … D45Y, 0%; in the experiment with ApoC3 peptide … A39Y it was 40.5%; with ApoC3 peptide … R40W, 38.8%; with ApoC3 peptide … L50W it was 17.7%; with ApoC3 peptide … L50Y, 0.38%. Besides, the “% of binding to wild-type peptide” value with ApoC3 peptide … G41Q was determined as 27.1%; with ApoC3 peptide … F47M, 0%; with ApoC3 peptide … F47P it was 0%; with ApoC3 peptide … G46A it was 0%; in the experiment with ApoC3 peptide … W42N, 118%; with ApoC3 peptide … L50P it was 0%. Moreover, the “% of binding to wild-type peptide” value with ApoC3 peptide … L50K stood at 0.74%; in the experiment with ApoC3 peptide … T44N it was 2.49%; with ApoC3 peptide … A39R, 89.4%; with ApoC3 peptide … G46V it was 0%; with ApoC3 peptide … W42D it was 108%; with ApoC3 peptide … S49Y, 0%. In addition, the “% of binding to wild-type peptide” value turned out to be 69.4% with ApoC3 peptide … A39H; 0% in the experiment with ApoC3 peptide … S49N; 28.1% in the experiment with ApoC3 peptide … G41E; 2.04% in the experiment with ApoC3 peptide … D45I; 1.57% with ApoC3 peptide … F47W; 0.89% in the experiment with ApoC3 peptide … S49F. Further, the “% of binding to wild-type peptide” value with ApoC3 peptide … G41L amounted to 6.27%; in the experiment with ApoC3 peptide … G46I it was 0%; in the experiment with ApoC3 peptide … T44Y, 0%.
